This is an account of results in PMC6368608 (Nature Communications, 2019).

Common to all, as to conditions: both partners purified
The target of assay [1] is T1, C.CH505TF gp120 (HIV-1 clade C, CH505 transmitted/founder, UniProt M4M0W3, strain). As to the kind of experiment: SPR.
Assay [2] has as its target T2, C.CH505TF gp120 (HIV-1 clade C, CH505 transmitted/founder, UniProt M4M0W3, strain). As to the kind of experiment: SPR; BIAcore T200; […]) 5 min at 50 µL/min, 10 min dissociation; […]; global 1:1 Langmuir fit; […].
Assay [3] deals with T1, C.CH505TF gp120. Description: SPR. The source holds these as a separate data set.
Assay [4] deals with T2, C.CH505TF gp120. Description: SPR; BIAcore T200; […]) 5 min at 50 µL/min, 10 min dissociation; […]; global 1:1 Langmuir fit; […]. The source holds these as a separate data set.

Changes are numbered by the printed parent chain. Names and notes keep the numbering of the source. A value given as a limit tells only on which side of the number the result lay.

B1: CH103 lineage intermediate I3 (antibody, V domains shown)
VH: QVQLQESGPGLVKSSETLSLTCTVSGGSMGGYYWSWLRQSPVKGLEWIGYIFHTGHTNYNPSLESRVTVSVDTSENQFSLRLRSVTAADTAVYYCASLPRGQLVNAFFDNWGQGTLVTVAS
VL: not shown
In the case of B1, in assay [1], the koff worked out at 0.000234 s⁻¹ and the kon was 24500 M⁻¹ s⁻¹.

B2: I3 (CH103 lineage intermediate) (antibody, V domains shown)
VH: B1 VH
VL: not shown
Regarding B2, binding in assay [2] was put at a Kd of 9.53 nM.

B3: CH103 UCA (antibody, V domains shown)
VH: QVQLQESGPGLVKPSETLSLTCTVSGGSISSYYWSWIRQPPGKGLEWIGYIYYSGSTNYNPSLKSRVTISVDTSKNQFSLKLSSVTAADTAVYYCASLPRGQLVNAYFDYWGQGTLVTVSS
VL: not shown
notes: also called unmutated common ancestor of the CH103 lineage
On to B3, for which the kon in assay [3] amounted to 23500 M⁻¹ s⁻¹.

B4: CH103 UCA-S30G (antibody, V domains shown)
VH: B3 VH with S30G
VL: not shown
In assay [3], B4 returned an off-rate constant (koff) of 0.0117 s⁻¹ and an on-rate (kon) of 29600 M⁻¹ s⁻¹.

B5: CH103 UCA (antibody, V domains shown)
VH: B3 VH
VL: not shown
notes: also called unmutated common ancestor of the CH103 lineage; wild-type UCA
In assay [4], B5 yielded an off-rate (koff) of 0.0101 s⁻¹ and an on-rate constant (kon) greater than 10000 M⁻¹ s⁻¹. In addition, the Kd in assay [2] worked out at 430 nM.

B6: UCA-P14S (antibody, V domains shown)
VH: B3 VH with P14S
VL: not shown
The molecule B6 had an equilibrium dissociation constant (Kd) in assay [2] of 370 nM.

B7: CH103 UCA-P14S (antibody, V domains shown)
VH: B3 VH with P14S
VL: not shown
In assay [3], B7 registered a koff of 0.0112 s⁻¹ and an on-rate (kon) of 30000 M⁻¹ s⁻¹.

B8: CH103 UCA-S30G/S31G (antibody, V domains shown)
VH: B3 VH with S30G, S31G
VL: not shown
In assay [3], B8 displayed a dissociation rate constant (koff) of 0.011 s⁻¹ and a kon of 25200 M⁻¹ s⁻¹.

B9: UCA-S30G/S31G (antibody, V domains shown)
VH: B3 VH with S30G, S31G
VL: not shown
B9 came in with a dissociation constant (Kd) in assay [2] of 440 nM.

B10: UCA-S30G (antibody, V domains shown)
VH: B3 VH with S30G
VL: not shown
In turn, B10 came in with an equilibrium dissociation constant (Kd) in assay [2] of 400 nM.

B11: CH103-S14P (antibody, V domains shown)
V domain 1: QVQLQESGPGVVKPSETLSLTCTVSGGSMGGTYWSWLRLSPGKGLEWIGYIFHTGETNYSPSLKGRVSISVDTSEDQFSLRLRSVTAADTAVYFCASLPRGQLVNAYFRNWGRGSLVSVTA
V domain 2: YELTQPPSVSVSPGQTATITCSGASTNVCWYQVKPGQSPEVVIFENYKRPSGIPDRFSGSKSGSTATLTIRGTQAIDEADYYCQVWDSFSTFVFGSGTQVTVL
In assay [3], B11 came in with a Kd of 50 nM, a koff of 0.000262 s⁻¹ and a kon of 5200 M⁻¹ s⁻¹.

B12: CH103-S14P/G30S (antibody, V domains shown)
V domain 1: B11 V domain 1 with G30S
V domain 2: B11 V domain 2
In assay [3], B12 gave a Kd of 70 nM, an off-rate (koff) of 0.0003 s⁻¹ and a kon of 4000 M⁻¹ s⁻¹.
